# Measured values as given in IntAct's records for PubMed 32017888.
# B1: Ras-related protein Rab-8A (Homo sapiens), P61006 (parent)
# chain: MAKTYDYLFKLLLIGDSGVGKTCVLFRFSEDAFNSTFISTIGIDFKIRTIELDGKRIKLQIWDTAGQERFRTITTAYYRGAMGIMLVYDITNEKSFDNIRNWIRNIEEHASADVEKMILGNKCDVNDKRQVSKERGEKLALDYGIKFMETSAKANINVENAFFTLARDIKAKMDKKLEGNSPQGSNQGVKITPDQQKRSSFFRCVLL
# partner: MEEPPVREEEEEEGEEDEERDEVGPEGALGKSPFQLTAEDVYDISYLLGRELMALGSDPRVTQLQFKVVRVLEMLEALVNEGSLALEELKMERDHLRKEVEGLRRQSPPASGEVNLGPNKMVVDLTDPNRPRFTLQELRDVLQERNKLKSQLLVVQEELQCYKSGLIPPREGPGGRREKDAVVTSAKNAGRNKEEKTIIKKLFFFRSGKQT
# B2: RILP-like protein 2 (Homo sapiens), Q969X0 (parent)
# chain: B1 partner
# Variants of: B1
# Conditions: with ripl2_human RILPL2, Q969X0
row,effect of a mutation on the interaction,Variant
1,with no effect,MAKAYDYLFKLLLIGDSGVGKTCVLFRFSEDAFNSTFISTIGIDFKIRTIELDGKRIKLQIWDTAGQERFRTITTAYYRGAMGIMLVYDITNEKSFDNIRNWIRNIEEHASADVEKMILGNKCDVNDKRQVSKERGEKLALDYGIKFMETSAKANINVENAFFTLARDIKAKMDKKLEGNSPQGSNQGVKITPDQQKRSSFFRCVLL [T4A]
2,disrupting interaction strength,MAKTYDYLFKLLLIGDSGVGKTCVLFRFSEDAFNSTFISTIGIAFKIRTIELDGKRIKLQIWDTAGQERFRTITTAYYRGAMGIMLVYDITNEKSFDNIRNWIRNIEEHASADVEKMILGNKCDVNDKRQVSKERGEKLALDYGIKFMETSAKANINVENAFFTLARDIKAKMDKKLEGNSPQGSNQGVKITPDQQKRSSFFRCVLL [D44A]

# Variants of: B2
# Conditions: with rab8a_human RAB8A
row,Variant,effect of a mutation on the interaction
1,MEEPPVREEEEEEGEEDEERDEVGPEGALGKSPFQLTAEDVYDISYLLGRELMALGSDPRVTQLQFKVVRVLEMLEALVNEGSLALEELKMERDHLRKEVEGLRRQSPPASGEVNLGPNKMVVDLTDPNRKRFTLQELRDVLQERNKLKSQLLVVQEELQCYKSGLIPPREGPGGRREKDAVVTSAKNAGRNKEEKTIIKKLFFFRSGKQT [P131K],decreasing interaction strength
2,MEEPPVREEEEEEGEEDEERDEVGPEGALGKSPFQLTAEDVYDISYLLGRELMALGSDPRVTQLQFKVVRVLEMLEALVNEGSLALEELKMERDHLRKEVEGLRRQSPPASGEVNLGPNKMVVDLTDPNRRRFTLQELRDVLQERNKLKSQLLVVQEELQCYKSGLIPPREGPGGRREKDAVVTSAKNAGRNKEEKTIIKKLFFFRSGKQT [P131R],decreasing interaction strength
3,MEEPPVREEEEEEGEEDEERDEVGPEGALGKSPFQLTAEDVYDISYLLGRELMALGSDPRVTQLQFKVVRVLEMLEALVNEGSLALEELKMERDHLRKEVEGLRRQSPPASGEVNLGPNKMVVDLTDPNRCRFTLQELRDVLQERNKLKSQLLVVQEELQCYKSGLIPPREGPGGRREKDAVVTSAKNAGRNKEEKTIIKKLFFFRSGKQT [P131C],decreasing interaction strength
4,MEEPPVREEEEEEGEEDEERDEVGPEGALGKSPFQLTAEDVYDISYLLGRELMALGSDPRVTQLQFKVVRVLEMLEALVNEGSLALEELKMERDHLRKEVEGLRRQSPPASGEVNLGPNKMVVDLTDPNRARFTLQELRDVLQERNKLKSQLLVVQEELQCYKSGLIPPREGPGGRREKDAVVTSAKNAGRNKEEKTIIKKLFFFRSGKQT [P131A],decreasing interaction strength
5,MEEPPVREEEEEEGEEDEERDEVGPEGALGKSPFQLTAEDVYDISYLLGRELMALGSDPRVTQLQFKVVRVLEMLEALVNEGSLALEELKMERDHLRKEVEGLRRQSPPASGEVNLGPNKMVVDLTDPNEPRFTLQELRDVLQERNKLKSQLLVVQEELQCYKSGLIPPREGPGGRREKDAVVTSAKNAGRNKEEKTIIKKLFFFRSGKQT [R130E],disrupting interaction strength
6,MEEPPVREEEEEEGEEDEERDEVGPEGALGKSPFQLTAEDVYDISYLLGRELMALGSDPRVTQLQFKVVRVLEMLEALVNEGSLALEELKMERDHLRKEVEGLRRQSPPASGEVNLGPNKMVVDLTDPNAPRFTLQELRDVLQERNKLKSQLLVVQEELQCYKSGLIPPREGPGGRREKDAVVTSAKNAGRNKEEKTIIKKLFFFRSGKQT [R130A],decreasing interaction strength
7,MEEPPVREEEEEEGEEDEERDEVGPEGALGKSPFQLTAEDVYDISYLLGRELMALGSDPRVTQLQFKVVRVLEMLEALVNEGSLALEELKMERDHLRKEVEGLRRQSPPASGEVNLGPNKMVVDLTDPNQPRFTLQELRDVLQERNKLKSQLLVVQEELQCYKSGLIPPREGPGGRREKDAVVTSAKNAGRNKEEKTIIKKLFFFRSGKQT [R130Q],decreasing interaction strength
8,MEEPPVREEEEEEGEEDEERDEVGPEGALGKSPFQLTAEDVYDISYLLGRELMALGSDPRVTQLQFKVVRVLEMLEALVNEGSLALEELKMERDHLRKEVEGLRRQSPPASGEVNLGPNKMVVDLTDPNKPRFTLQELRDVLQERNKLKSQLLVVQEELQCYKSGLIPPREGPGGRREKDAVVTSAKNAGRNKEEKTIIKKLFFFRSGKQT [R130K],decreasing interaction strength

# More lines, now with the values ahead:
row,effect of a mutation on the interaction,Variant
1,disrupting interaction strength,MEEPPVREEEEEEGEEDEERDEVGPEGALGKSPFQLTAEDVYDISYLLGRELMALGSDPRVTQLQFKVVRVLEMLEALVNEGSLALEELKMERDHLRKEVEGLRRQSPPASGEVNLGPNKMVVDLTDPNRPEFTLQELRDVLQERNKLKSQLLVVQEELQCYKSGLIPPREGPGGRREKDAVVTSAKNAGRNKEEKTIIKKLFFFRSGKQT [R132E]
2,disrupting interaction strength,MEEPPVREEEEEEGEEDEERDEVGPEGALGKSPFQLTAEDVYDISYLLGRELMALGSDPRVTQLQFKVVRVLEMLEALVNEGSLALEELKMERDHLRKEVEGLRRQSPPASGEVNLGPNKMVVDLTDPNRPKFTLQELRDVLQERNKLKSQLLVVQEELQCYKSGLIPPREGPGGRREKDAVVTSAKNAGRNKEEKTIIKKLFFFRSGKQT [R132K]
3,disrupting interaction strength,MEEPPVREEEEEEGEEDEERDEVGPEGALGKSPFQLTAEDVYDISYLLGRELMALGSDPRVTQLQFKVVRVLEMLEALVNEGSLALEELKMERDHLRKEVEGLRRQSPPASGEVNLGPNKMVVDLTDPNRPQFTLQELRDVLQERNKLKSQLLVVQEELQCYKSGLIPPREGPGGRREKDAVVTSAKNAGRNKEEKTIIKKLFFFRSGKQT [R132Q]
4,decreasing interaction strength,MEEPPVREEEEEEGEEDEERDEVGPEGALGKSPFQLTAEDVYDISYLLGRELMALGSDPRVTQLQFKVVRVLEMLEALVNEGSLALEELKMERDHLRKEVEGLRRQSPPASGEVNLGPNKMVVDLTDPNRPRFTAQELRDVLQERNKLKSQLLVVQEELQCYKSGLIPPREGPGGRREKDAVVTSAKNAGRNKEEKTIIKKLFFFRSGKQT [L135A]
5,disrupting interaction strength,MEEPPVREEEEEEGEEDEERDEVGPEGALGKSPFQLTAEDVYDISYLLGRELMALGSDPRVTQLQFKVVRVLEMLEALVNEGSLALEELKMERDHLRKEVEGLRRQSPPASGEVNLGPNKMVVDLTDPNRPRATLQELRDVLQERNKLKSQLLVVQEELQCYKSGLIPPREGPGGRREKDAVVTSAKNAGRNKEEKTIIKKLFFFRSGKQT [F133A]
6,with no effect,MEEPPVREEEEEEGEEDEERDEVGPEGALGKSPFQLTAEDVYDISYLLGRELMALGSDPRVTQLQFKVVRVLEMLEALVNEGSLALEELKMERDHLRKEVEGLRRQSPPASGEVNLGPNKMVVDLTDPNRPRFTLQELADVLQERNKLKSQLLVVQEELQCYKSGLIPPREGPGGRREKDAVVTSAKNAGRNKEEKTIIKKLFFFRSGKQT [R139A]
7,with no effect,MEEPPVREEEEEEGEEDEERDEVGPEGALGKSPFQLTAEDVYDISYLLGRELMALGSDPRVTQLQFKVVRVLEMLEALVNEGSLALEELKMERDHLRKEVEGLRRQSPPASGEVNLGPNKMVVDLTDPNRPRFTLQELQDVLQERNKLKSQLLVVQEELQCYKSGLIPPREGPGGRREKDAVVTSAKNAGRNKEEKTIIKKLFFFRSGKQT [R139Q]
8,decreasing interaction strength,MEEPPVREEEEEEGEEDEERDEVGPEGALGKSPFQLTAEDVYDISYLLGRELMALGSDPRVTQLQFKVVRVLEMLEALVNEGSLALEELKMERDHLRKEVEGLRRQSPPASGEVNLGPNKMVVDLTDPNRPRFTLQELEDVLQERNKLKSQLLVVQEELQCYKSGLIPPREGPGGRREKDAVVTSAKNAGRNKEEKTIIKKLFFFRSGKQT [R139E]
9,decreasing interaction strength,MEEPPVREEEEEEGEEDEERDEVGPEGALGKSPFQLTAEDVYDISYLLGRELMALGSDPRVTQLQFKVVRVLEMLEALVNEGSLALEELKMERDHLRKEVEGLRRQSPPASGEVNLGPNKMVVDLTDPNRPRFTLQELRDVLQERNKLKSQLLVVQAELQCYKSGLIPPREGPGGRREKDAVVTSAKNAGRNKEEKTIIKKLFFFRSGKQT [E157A]
10,decreasing interaction strength,MEEPPVREEEEEEGEEDEERDEVGPEGALGKSPFQLTAEDVYDISYLLGRELMALGSDPRVTQLQFKVVRVLEMLEALVNEGSLALEELKMERDHLRKEVEGLRRQSPPASGEVNLGPNKMVVDLTDPNRPRFTLQELRDVLQERNKLKSQLLVVQQELQCYKSGLIPPREGPGGRREKDAVVTSAKNAGRNKEEKTIIKKLFFFRSGKQT [E157Q]
11,decreasing interaction strength,MEEPPVREEEEEEGEEDEERDEVGPEGALGKSPFQLTAEDVYDISYLLGRELMALGSDPRVTQLQFKVVRVLEMLEALVNEGSLALEELKMERDHLRKEVEGLRRQSPPASGEVNLGPNKMVVDLTDPNRPRFTLQELRDVLQERNKLKSQLLVVQKELQCYKSGLIPPREGPGGRREKDAVVTSAKNAGRNKEEKTIIKKLFFFRSGKQT [E157K]
12,decreasing interaction strength,MEEPPVREEEEEEGEEDEERDEVGPEGALGKSPFQLTAEDVYDISYLLGRELMALGSDPRVTQLQFKVVRVLEMLEALVNEGSLALEELKMERDHLRKEVEGLRRQSPPASGEVNLGPNKMVVDLTDPNRPRFTLQELRDVLQERNKLESQLLVVQEELQCYKSGLIPPREGPGGRREKDAVVTSAKNAGRNKEEKTIIKKLFFFRSGKQT [K149E]
13,decreasing interaction strength,MEEPPVREEEEEEGEEDEERDEVGPEGALGKSPFQLTAEDVYDISYLLGRELMALGSDPRVTQLQFKVVRVLEMLEALVNEGSLALEELKMERDHLRKEVEGLRRQSPPASGEVNLGPNKMVVDLTDPNRPRFTLQELRDVLQERNKLASQLLVVQEELQCYKSGLIPPREGPGGRREKDAVVTSAKNAGRNKEEKTIIKKLFFFRSGKQT [K149A]
14,decreasing interaction strength,MEEPPVREEEEEEGEEDEERDEVGPEGALGKSPFQLTAEDVYDISYLLGRELMALGSDPRVTQLQFKVVRVLEMLEALVNEGSLALEELKMERDHLRKEVEGLRRQSPPASGEVNLGPNKMVVDLTDPNRPRFTLQELRDVLQERNKLQSQLLVVQEELQCYKSGLIPPREGPGGRREKDAVVTSAKNAGRNKEEKTIIKKLFFFRSGKQT [K149Q]

# Variants of: B2
# Conditions: with rab8a_human RAB8A, P61006
row,effect of a mutation on the interaction,Variant
1,disrupting interaction strength,MEEPPVREEEEEEGEEDEERDEVGPEGALGKSPFQLTAEDVYDISYLLGRELMALGSDPRVTQLQFKVVRVLEMLEALVNEGSLALEELKMERDHLRKEVEGLRRQSPPASGEVNLGPNKMVVDLTDPNRPAFTLQELRDVLQERNKLKSQLLVVQEELQCYKSGLIPPREGPGGRREKDAVVTSAKNAGRNKEEKTIIKKLFFFRSGKQT [R132A]
